# Results: US20240277804A1, “TRIPLE COMBINATION THERAPY” (Immutep S.A.S., priority 2021, published 2024)
# Key:
# [1] = Pharmacokinetics of IMP321 after s.c. injection in cancer patients; format: in vivo, human; conditions: for at least 24 hours after s.c. injection; patients injected with IMP321 doses of more than 6 mg
# Procedure: (§1) Doses of 6-30 mg per subcutaneous (s.c.) injection of IMP321 have been shown, thus far, to be safe and provide an acceptable systemic exposure based on the results of pharmacokinetics data obtained in cancer patients.
# [2] = Safety of s.c. IMP321 in cancer patients; format: in vivo, human
# Procedure: as §1
molecule,measurement,setting,value
"IMP321: recombinant soluble human LAG-3Ig fusion protein, 160-kDa dimer: extracellular domain of hLAG-3 fused to human IgG1 Fc; APC activator (protein, left off: small tags and cut ends; a dimerising Fc or GST) LQPGAEVPVVWAQEGAPAQLPCSPTIPLQDLSLLRRAGVTWQHQPDSGPPAAAPGHPLAPGPHPAAPSSWGPRPRRYTVLSVGPGGLRSGRLPLQPRVQLDERGRQRGDFSLWLRPARRADAGEYRAAVHLRDRALSCRLRLRLGQASMTASPPGSLRASDWVILNCSFSRPDRPASVHWFRNRGQGRVPVRESPHHHLAESFLFLPQVSPMDSGPWGCILTYRDGFNVSIMYNLTVLGLEPPTPLTVYAGAGSRVGLPCRLPAGVGTRSFLTAKWTPPGGGPDLLVTGDNGDFTLRLEDVSQAQAGTYTCHIHLQEQQLNATVTLAIITVTPKSFGSPGSLGKLLCEVTPVSGQERFVWSSLDTPSQRSFSGPWLEAQEAQLLSQPWQCQLYQGERLLGAAVYFTELSSPG",blood concentration of IMP321,[1],> 1 ng/mL
same,safety / acceptable systemic exposure,[2]; doses of 6-30 mg per s.c. injection,safe
same,dose limiting toxicity,[2]; to date,No dose limiting toxicity has been observed
